Our source for the Kd values is the Immune Epitope Database (IEDB).

One test concerns the target HLA-A*30:01. Kind of test: IEDB peptide-MHC binding, purified MHC/competitive/radioactivity; filed as Kd, often an IC50 or EC50 that approximates it; ≥ and ≤ were set here for values at or beyond the usual limits of such assays.
A further test has as its target HLA-A*30:02. Described as above.
The target in the next test is HLA-A*01:01. The test is described as above.
Another test addresses HLA-A*29:02. The test is described as above.
A further test has as its target HLA-A*32:01. Described as above.
Test [1] has as its target HLA-A*26:01. Described as above.
A further test deals with HLA-A*68:02. The test is described as above.
Another test deals with HLA-A*02:06. The test is described as above.
The target of a further test is HLA-A*02:02. Described as above.
The target of the next test is HLA-A*02:01. The test is described as above.
A further test deals with HLA-A*02:03. Described as above.
Another test has as its target HLA-A*31:01. The description is as above. Particulars: source organism: Mammarenavirus whitewaterense.
Another test has as its target HLA-A*68:01. The test is described as above. The note with it: source organism: Mammarenavirus whitewaterense.
The target of a further test is HLA-A*33:01. The description is as above. The note with it: source organism: Mammarenavirus whitewaterense.
Another test addresses HLA-A*03:01. Described as above. Particulars: source organism: Mammarenavirus whitewaterense.
The next test concerns the target HLA-B*08:01. As to the kind of experiment: IEDB peptide-MHC binding, purified MHC/direct/fluorescence; filed as Kd, often an IC50 or EC50 that approximates it; ≥ and ≤ were set here for values at or beyond the usual limits of such assays. The note with it: source organism: Salmonella enterica subsp. enterica serovar Typhimurium str. LT2.
Test [2] has as its target HLA-A*26:01. Kind of test: IEDB peptide-MHC binding, purified MHC/competitive/fluorescence; filed as Kd, often an IC50 or EC50 that approximates it; ≥ and ≤ were set here for values at or beyond the usual limits of such assays. Particulars: source organism: Bacillus anthracis str. A0488.
[3] abbreviates: source organism: Mammarenavirus juninense.
The mark [4] stands for this setting: source organism: Lassa virus Josiah.
[5] abbreviates: source organism: Dengue virus 2 Jamaica/1409/1983.
Where [6] appears, read: source organism: Vaccinia virus WR.
Where [7] appears, read: source organism: Dengue virus 4 Philippines/H241/1956.
Setting [8] is: source organism: Lymphocytic choriomeningitis virus (strain Armstrong).
Setting [9] is: source organism: Hepatitis C virus (isolate Th580).
Setting [10] is: source organism: Dengue virus 3 Martinique/1243/1999.

In general, Kd refers to the equilibrium constant for the complex coming apart. As for KVLRPTPRG, the Kd with HLA-A*30:01 (source organism: Dengue virus 4 Dominica/814669/1981) was 300 nM.
On to LAGLFIDAGY, for which the Kd with HLA-A*30:02 (setting [3]) was 171 nM; with HLA-A*01:01 (setting [3]), 1640 nM; with HLA-A*29:02 (setting [3]) it was 54.3 nM; in the test with HLA-A*32:01 (setting [3]) it was 14900 nM; with HLA-A*30:01 (setting [3]), 12500 nM; with HLA-A*26:01 [1] (setting [3]), not below 43600 nM.
For the sequence LTYSQLMTL, the Kd in the test with HLA-A*68:02 (setting [4]) came to 103 nM; with HLA-A*02:06 (setting [4]), 57.8 nM; with HLA-A*02:02 (setting [4]), 11.1 nM; with HLA-A*02:01 (setting [4]) it was 227 nM; with HLA-A*02:03 (setting [4]), 7.81 nM.
In the case of LTYVVIAILT, in the test with HLA-A*68:02 (setting [5]), the Kd came to 173 nM.
MQRIISLSV: the Kd with HLA-A*30:01 (setting [6]) was determined as 8.81 nM.
Turning to MTTEDMLKV, the values for the Kd with HLA-A*68:02 (setting [7]) and in the test with HLA-A*01:01 (setting [7]) were 41.8 nM and not below 22800 nM, respectively.
For the sequence MVNGVVKLL, the Kd with HLA-A*68:02 (source organism: Dengue virus 1 Singapore/S275/1990) stood at 60.2 nM.
Regarding NANAYSGKY, the Kd with HLA-A*30:02 (setting [8]) is 2.71 nM; with HLA-A*01:01 (setting [8]), 515 nM; with HLA-A*29:02 (setting [8]), 1070 nM; in the test with HLA-A*32:01 (setting [8]), not below 50000 nM; with HLA-A*30:01 (setting [8]), not below 37600 nM; in the test with HLA-A*26:01 [1] (setting [8]), 4310 nM.
In the case of NLPIYSEEI, the Kd with HLA-A*68:02 (source organism: Homo sapiens) was 39.3 nM; with HLA-A*02:06 (source organism: Homo sapiens), 27.5 nM; in the test with HLA-A*02:02 (source organism: Homo sapiens), 77.1 nM; with HLA-A*02:01 (source organism: Homo sapiens), 66.6 nM; with HLA-A*02:03 (source organism: Homo sapiens) it was 390 nM.
As for RGRLLAAGK, the Kd with HLA-A*30:01 (setting [6]) amounted to 125 nM.
RHRKPTYEK: the Kd in the test with HLA-A*30:01 (setting [7]) was 24.5 nM.
RLSSNSRIL: the equilibrium dissociation constant (Kd) with HLA-A*02:01 (source organism: Hepatitis B virus) is not below 10000 nM.
For RTKPISMYF, in the test with HLA-A*30:01 (source organism: Vaccinia virus Copenhagen), the dissociation constant Kd came out at 0.598 nM.
Consider RTKSKILFG, for which the Kd with HLA-A*30:01 (setting [6]) was 10 nM.
Take RVPNYNLII: the Kd in the test with HLA-A*32:01 (setting [5]) is 148 nM.
On to SGIFVTNEV, for which the Kd in the test with HLA-A*68:02 (source organism: Dengue virus 1 Brazil/97-11/1997) came to 46.9 nM.
For SLLMWITQC, the equilibrium dissociation constant (Kd) in the test with HLA-A*02:01 (source organism: Homo sapiens) is not below 21100 nM.
As for SLTCEVDAL, in the test with HLA-A*68:02 (source organism: Homo sapiens), the Kd worked out at 3120 nM.
As for SSIIRSLPK, the Kd was 1720 nM with HLA-A*31:01; 223 nM with HLA-A*68:01; not below 39400 nM with HLA-A*33:01; 39 nM with HLA-A*03:01; 180 nM with HLA-A*30:01 (source organism: Mammarenavirus whitewaterense).
Consider STRDGEPLM, for which the Kd in the test with HLA-A*30:01 (setting [7]) came out at 71.6 nM; with HLA-A*26:01 [1] (setting [7]), 8190 nM.
For STRVPNYNL, the Kd in the test with HLA-A*30:01 (setting [7]) is 6.26 nM.
Consider SVSLVLVGV, for which, in the test with HLA-A*68:02 (setting [5]), the Kd came to 1.05 nM.
Regarding SYRTRAINK, the Kd in the test with HLA-A*30:01 (setting [6]) turned out to be 1020 nM.
Turning to TMEAMRIMGI, the Kd in the test with HLA-A*68:02 (source organism: Homo sapiens) stood at 21.9 nM.
With TMRLRSEVL, in the test with HLA-B*08:01, the Kd was found to be 22 nM.
For the sequence TTAKEVALL, the Kd in the test with HLA-A*68:02 (setting [7]) was 21.8 nM; in the test with HLA-A*26:01 [1] (setting [7]), 1900 nM.
Take TVKSFLNFY: in the test with HLA-A*26:01 [2], the equilibrium dissociation constant (Kd) amounted to 7.2 nM.
Take VLSDFKTWL: the Kd in the test with HLA-A*68:02 (setting [9]) was not below 57400 nM; with HLA-A*02:06 (setting [9]) it was not below 29500 nM; in the test with HLA-A*02:02 (setting [9]), 263 nM; in the test with HLA-A*02:03 (setting [9]), 290 nM.
Regarding VQVLALEPGK, the Kd in the test with HLA-A*30:01 (setting [5]) was 2520 nM.
As to WLWYIKIFI, the equilibrium dissociation constant (Kd) in the test with HLA-A*02:01 (source organism: HIV-1 M:B_MN) stood at 141 nM.
On to YMMNIYLNF, for which the Kd in the test with HLA-A*32:01 (setting [6]) is 2.93 nM.
On to YVVIGILTLA, for which the Kd in the test with HLA-A*68:02 (setting [10]) was found to be 123 nM; with HLA-A*02:06 (setting [10]), 47.4 nM.
